Measured values published in article PMC8068644.

Assay: immunoblot, full-length as % of total β1AR, CHO-Pro5
Settings: glycan lost

Substance | other: N-terminal proteolytic cleavage, other: decrease in full-length β1AR (control: 31H32A/52A53A-β1AR) [%] | other: N-terminal proteolytic cleavage, other: decrease in full-length β1AR (control: WT-β1AR) [%]
β1-adrenergic receptor (β1AR): S41A in 31H32A/52A53A backbone | 69.7 | 
β1-adrenergic receptor (β1AR): S37A |  | 21.7
β1-adrenergic receptor (β1AR): S41A |  | 56.8
